According to patent US20100215651A1 (GLENMARK PHARMACEUTICALS S A, published 2010):

Legend:
[1] = biological target: T1, human CD19 (human, UniProt P15391 20-556); test: flow cytometry on SU-DHL-6 cells, PE-labelled anti-human secondary antibody, MFI against antibody concentration
T1 construct: CD19 as expressed on Raji, NALM-6 and SU-DHL-6 cells; also called CD19 antigen; B-cell surface antigen B4
T1 sequence: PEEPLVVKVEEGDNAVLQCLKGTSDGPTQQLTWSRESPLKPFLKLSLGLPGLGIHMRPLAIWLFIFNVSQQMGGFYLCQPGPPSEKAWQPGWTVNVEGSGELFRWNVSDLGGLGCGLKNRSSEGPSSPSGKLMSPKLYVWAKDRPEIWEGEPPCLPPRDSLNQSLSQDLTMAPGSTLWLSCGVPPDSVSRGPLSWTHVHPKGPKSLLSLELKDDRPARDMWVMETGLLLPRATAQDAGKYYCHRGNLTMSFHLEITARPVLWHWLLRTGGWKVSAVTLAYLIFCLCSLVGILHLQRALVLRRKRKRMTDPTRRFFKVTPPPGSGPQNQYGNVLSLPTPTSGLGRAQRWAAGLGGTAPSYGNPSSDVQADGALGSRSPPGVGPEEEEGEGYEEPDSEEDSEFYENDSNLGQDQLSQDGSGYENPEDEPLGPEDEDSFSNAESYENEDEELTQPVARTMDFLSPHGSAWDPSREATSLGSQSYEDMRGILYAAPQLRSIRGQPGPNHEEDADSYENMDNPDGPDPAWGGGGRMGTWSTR
Experimental: (§1) Binding of the CD19 humanized monoclonal antibodies by flow cytometry to Raji tumor cells (human Burkitt lymphoma, DSMZ ACC319), NALM-6 (human B cell precursor leukemia, DSMZ ACC128) and SU-DHL-6 (human B cell lymphoma, DSMZ ACC572) (all cell lines from DSMZ Braunschweig, Deutschland) was assessed. Cells were incubated with serial dilutions of each humanized monoclonal antibody. An irrelevant human IgG1 was used as a negative control. The cells were washed and detected by a phycoerythrin-labeled (PE) anti-human secondary antibody (eBioscience, CA, USA) and analyzed by flow cytometry. […] From MFI versus antibody concentration curves, Mid-Point Fluorescence (MPF) value for each anti-CD19 humanized antibody was calculated using the software GraphPad Prism 5 (CA, USA).

[2] = biological target: T1, human CD19; test: flow cytometry, Raji cells, MPF vs chimeric FMC63
[3] = biological target: T1, human CD19; test: cell-based or functional assay
[4] = biological target: T1, human CD19; test: competition with 0.2 nM Eu3+-labelled chimeric FMC63 on Raji cells
Experimental: To that aim, 100 μl volumes of Raji cells in RPMI-1640 medium (Chemie Brunschwig AG, PAA, Basel, Switzerland) supplemented with 10% fetal bovine serum (FBS, Chemie Brunschwig AG, PAA, Basel, Switzerland), 2 mM ultraglutamine 1 (Lonza, Verviers, Belgium) and 1% penicillin/streptomycin (Chemie Brunschwig AG, PAA, Basel, Switzerland), prepared at concentration of 1×10⁶ cells/ml were seeded in a U-bottomed 96-well plate. […] The antibody dilutions were cooled down to 4° C. before 100 μl was taken and added on the Raji cells. […] Cells were incubated with the antibodies for 15 minutes on ice. After reaching equilibrium, the cells were centrifuged at 1300 RPM for 2 minutes and supernatant was discarded. Cell pellets were washed twice with 200 μl of cold binding buffer PBS-2.5% FBS-0.05% NaN₃, and resuspended into 100 μl of Delfia solution. Cell bound Eu³+-FMC63 was measured with time resolved fluorescence as described above. The amount of Eu³+-FMC63 (fmole) per well was determined and plotted versus the total amount of unlabelled antibody.

[5] = biological target: T1, human CD19; test: binding to Raji cells
[6] = biological target: T1, human CD19; test: flow cytometry, Raji cells, MPF vs chimeric FMC63; remark: listed apart in the source
Experimental: as §1

[7] = biological target: T1, human CD19; test: flow cytometry, Raji cells, MPF vs chimeric FMC63; remark: listed apart in the source
Experimental: as §1

[8] = biological target: T1, human CD19; test: flow cytometry, NALM-6 cells, MPF vs chimeric FMC63
Experimental: as §1

[9] = biological target: T1, human CD19; test: flow cytometry on Raji cells
Experimental: as §1

[10] = biological target: T1, human CD19; test: Scatchard analysis, Eu3+-labelled antibody on Raji cells
Experimental: (§2) Raji cells as described in Example 2 were grown in RPMI-1640 medium (Chemie Brunschwig AG, PAA, Basel, Switzerland) supplemented with 10% fetal bovine serum (FBS, Chemie Brunschwig AG, PAA, Basel, Switzerland), 2 mM ultraglutamine 1 (Lonza, Verviers, Belgium) and 1% penicillin/streptomycin (Chemie Brunschwig AG, PAA, Basel, Switzerland). The cells were washed with the same culture medium and adjusted to a final concentration of 1×10⁶ cells/ml. A 100 μl volume of Raji cells was seeded in U-bottomed 96-well plate. […] Cells were incubated with Eu³⁺-antibody for 15 minutes on ice to reach equilibrium. The amount of free Eu³⁺-labelled antibodies were measured by transferring aliquots of cell-free supernatant (volumes were empirically adjusted depending on antibody concentration; cells were spun at 1300 RPM for 2 min) into a fresh plate containing 100 μl of Delfia solution (PerkinElmer, MA, USA; an enhancer of Eu³⁺ fluorescence). To ensure complete removal of the supernatant, cells were spin down once more at 1300 RPM for 2 minutes. After the second centrifugation, the supernatant was discarded, and cells were washed twice with 200 μl of cold binding buffer (PBS-2.5% FBS-0.05% NaN₃). Cell pellets were resuspended into 100 μl of Delfia solution.

[11] = biological target: T1, human CD19; test: Scatchard analysis (Bound/Free against Bound) of europium-labelled antibody on Raji cells, time resolved fluorescence
Experimental: as §2

B1: VH16-R94K/VL43-V3Q-T7S-P44I-N92A (antibody, human IgG1, kappa, V domains shown)
VH: QVQLVQSGGGVVQPGRSLRLSCAASGVSLPDYGVSWVRQAPGKGLEWVAVIWGSETTYYNSALKSRFTISRDNSKNTLYLQMNSLRAEDTAVYYCAKHYYYGGSYAMDYWGQGTLVTVSS
VL: DIQMTQSPSSLSASVGDRVTITCRASQDISKYLNWYQQKPGKAIKLLIYHTSRLHSGVPSRFSGSGSGTDFTLTISSLQPEDFATYYCQQGATLPYTFGPGTKVDIKR
notes: human IgG1/kappa
EC50 (read off the curve) [1]: ~0.09 µg/mL | relative MPF (% of chimeric FMC63) [2]: 83.3% | ADCC: specific lysis of Raji cells by PBMC (LDH release), against IgG1 control [3]: ≥ 3 fold | Ki [4]: 3.9 nM

B2: VH16 R94K VL43 F71H (antibody, human IgG1, V domains shown)
VH: QVQLVQSGGGVVQPGRSLRLSCAASGVSLPDYGVSWVRQAPGKGLEWVAVIWGSETTYYNSALKSRFTISRDNSKNTLYLQMNSLRAEDTAVYYCAKHYYYGGSYAMDYWGQGTLVTVSS
VL: DIVMTQTPSSLSASVGDRVTITCRASQDISKYLNWYQQKPGKAPKLLIYHTSRLHSGVPSRFSGSGSGTDHTLTISSLQPEDFATYYCQQGNTLPYTFGPGTKVDIK
binding result [5]: binds

B3: VH16/VL43 (antibody, human IgG1, V domains shown)
VH: QVQLVQSGGGVVQPGRSLRLSCAASGVSLPDYGVSWVRQAPGKGLEWVAVIWGSETTYYNSALKSRFTISRDNSKNTLYLQMNSLRAEDTAVYYCARHYYYGGSYAMDYWGQGTLVTVSS
VL: DIVMTQTPSSLSASVGDRVTITCRASQDISKYLNWYQQKPGKAPKLLIYHTSRLHSGVPSRFSGSGSGTDFTLTISSLQPEDFATYYCQQGNTLPYTFGPGTKVDIKR
relative MPF (% of chimeric FMC63) [2]: 7.42% | relative MPF (% of chimeric FMC63) [6]: 7.14% | relative MPF (% of chimeric FMC63) [7]: 7.14% | relative MPF (% of chimeric FMC63) [8]: 3.29% | Ki [4]: 72.8 nM

B4: VH16 R94K/Y97F/VL43 V3Q/T7S/Y32F/N92A (antibody, human IgG1, name in Kabat numbering, V domains shown)
VH: QVQLVQSGGGVVQPGRSLRLSCAASGVSLPDYGVSWVRQAPGKGLEWVAVIWGSETTYYNSALKSRFTISRDNSKNTLYLQMNSLRAEDTAVYYCAKHYFYGGSYAMDYWGQGTLVTVSS
VL: DIQMTQSPSSLSASVGDRVTITCRASQDISKFLNWYQQKPGKAPKLLIYHTSRLHSGVPSRFSGSGSGTDFTLTISSLQPEDFATYYCQQGATLPYTFGPGTKVDIKR
notes: substitutions in Kabat numbering
binding result [9]: no binding

B5: VH16 R94K VL43 F71T (antibody, human IgG1, V domains shown)
VH: QVQLVQSGGGVVQPGRSLRLSCAASGVSLPDYGVSWVRQAPGKGLEWVAVIWGSETTYYNSALKSRFTISRDNSKNTLYLQMNSLRAEDTAVYYCAKHYYYGGSYAMDYWGQGTLVTVSS
VL: DIVMTQTPSSLSASVGDRVTITCRASQDISKYLNWYQQKPGKAPKLLIYHTSRLHSGVPSRFSGSGSGTDTTLTISSLQPEDFATYYCQQGNTLPYTFGPGTKVDIK
binding result [5]: binds

B6: VH16 R94K VL43 F71S (antibody, human IgG1, V domains shown)
VH: QVQLVQSGGGVVQPGRSLRLSCAASGVSLPDYGVSWVRQAPGKGLEWVAVIWGSETTYYNSALKSRFTISRDNSKNTLYLQMNSLRAEDTAVYYCAKHYYYGGSYAMDYWGQGTLVTVSS
VL: DIVMTQTPSSLSASVGDRVTITCRASQDISKYLNWYQQKPGKAPKLLIYHTSRLHSGVPSRFSGSGSGTDSTLTISSLQPEDFATYYCQQGNTLPYTFGPGTKVDIK
binding result [5]: binds

B7: VH16-Y32F-R94K-Y97F/VL43-V3Q-T7S-N92A (antibody, human IgG1, name in Kabat numbering, V domains shown)
VH: QVQLVQSGGGVVQPGRSLRLSCAASGVSLPDFGVSWVRQAPGKGLEWVAVIWGSETTYYNSALKSRFTISRDNSKNTLYLQMNSLRAEDTAVYYCAKHYFYGGSYAMDYWGQGTLVTVSS
VL: DIQMTQSPSSLSASVGDRVTITCRASQDISKYLNWYQQKPGKAPKLLIYHTSRLHSGVPSRFSGSGSGTDFTLTISSLQPEDFATYYCQQGATLPYTFGPGTKVDIKR
notes: as for B4
relative MPF (% of chimeric FMC63) [2]: 16.9% | Ki [4]: 49.9 nM

B8: VH16 Y32F/R94K/Y97F/VL43 V3Q/T7S/Y32F/N92A (antibody, human IgG1, name in Kabat numbering, V domains shown)
VH: QVQLVQSGGGVVQPGRSLRLSCAASGVSLPDFGVSWVRQAPGKGLEWVAVIWGSETTYYNSALKSRFTISRDNSKNTLYLQMNSLRAEDTAVYYCAKHYFYGGSYAMDYWGQGTLVTVSS
VL: DIQMTQSPSSLSASVGDRVTITCRASQDISKFLNWYQQKPGKAPKLLIYHTSRLHSGVPSRFSGSGSGTDFTLTISSLQPEDFATYYCQQGATLPYTFGPGTKVDIKR
notes: as for B4
binding result [9]: no binding

B9: VH16-R94K/VL43 (antibody, human IgG1)
heavy: not shown
VL: DIVMTQTPSSLSASVGDRVTITCRASQDISKYLNWYQQKPGKAPKLLIYHTSRLHSGVPSRFSGSGSGTDFTLTISSLQPEDFATYYCQQGNTLPYTFGPGTKVDIKRTVAA
notes: Full-length human IgG1/kappa
Kd [10]: 47 nM | EC50 (read off the curve) [1]: ~0.2 µg/mL | relative MPF (% of chimeric FMC63) [2]: 27.1% | relative MPF (% of chimeric FMC63) [6]: 26.8% | relative MPF (% of chimeric FMC63) [7]: 26.8% | relative MPF (% of chimeric FMC63) [8]: 14.4% | Ki [4]: 7.6 nM

B10: VH16 R94K VL43 P44I (antibody, human IgG1, V domains shown)
VH: QVQLVQSGGGVVQPGRSLRLSCAASGVSLPDYGVSWVRQAPGKGLEWVAVIWGSETTYYNSALKSRFTISRDNSKNTLYLQMNSLRAEDTAVYYCAKHYYYGGSYAMDYWGQGTLVTVSS
VL: DIVMTQTPSSLSASVGDRVTITCRASQDISKYLNWYQQKPGKAIKLLIYHTSRLHSGVPSRFSGSGSGTDFTLTISSLQPEDFATYYCQQGNTLPYTFGPGTKVDIKR
notes: Full-length human IgG1/kappa; substitutions in Kabat numbering
EC50 (read off the curve) [1]: ~0.09 µg/mL | Kd [11]: 19 nM
